No end group written: not given here.
Molecular target: T1, human GLP-1 receptor (Homo sapiens, UniProt P43220)
T1 construct: expressed in transfected cells; host or cells: HEK-293 Aurora CRE-BLAM cells
Experiment: In vitro potency, CRE-BLAM fluorescence assay
Assay type: cell-based
Conditions: HEK-293 Aurora CRE-BLAM cells expressing the human GLP-1 receptor; 5 hours incubation; control Val^8-GLP-1(7-37)OH
Description: “In vitro potency” as used herein is the measure of the ability of a peptide to activate the GLP-1 receptor in a cell-based assay. In vitro potency is expressed as the “EC50” which is the effective concentration of compound that results in 50% activity in a single dose-response experiment. For the purposes of the present invention, in vitro potency is determined using a fluorescence assay that employs HEK-293 Aurora CRE-BLAM cells that stably express the human GLP-1 receptor. These HEK-293 cells have stably integrated a DNA vector having a cAMP response element (CRE) driving expression of the β-lactamase (BLAM) gene. The interaction of a GLP-1 agonist with the receptor initiates a signal that results in activation of the cAMP response element and subsequent expression of β-lactamase. The β-lactamase CCF2/AM substrate that emits fluorescence when it is cleaved by β-lactamase (Aurora Biosciences Corp.) can then be added to cells that have been exposed to a specific amount of GLP-1 agonist to provide a measure of GLP-1 agonist potency. […]
HEK-293 Aurora CRE-BLAM cells expressing the human GLP-1 receptor are seeded at 20,000 to 40,000 cells/well/100 μl into a 96 well black clear bottom plate. […] Generally, fourteen dilutions containing from […] to 30 nanomolar GLP-1 compound were used to generate a dose response curve from which EC50 values could be determined. […]

T1 sequence (P43220 24-463): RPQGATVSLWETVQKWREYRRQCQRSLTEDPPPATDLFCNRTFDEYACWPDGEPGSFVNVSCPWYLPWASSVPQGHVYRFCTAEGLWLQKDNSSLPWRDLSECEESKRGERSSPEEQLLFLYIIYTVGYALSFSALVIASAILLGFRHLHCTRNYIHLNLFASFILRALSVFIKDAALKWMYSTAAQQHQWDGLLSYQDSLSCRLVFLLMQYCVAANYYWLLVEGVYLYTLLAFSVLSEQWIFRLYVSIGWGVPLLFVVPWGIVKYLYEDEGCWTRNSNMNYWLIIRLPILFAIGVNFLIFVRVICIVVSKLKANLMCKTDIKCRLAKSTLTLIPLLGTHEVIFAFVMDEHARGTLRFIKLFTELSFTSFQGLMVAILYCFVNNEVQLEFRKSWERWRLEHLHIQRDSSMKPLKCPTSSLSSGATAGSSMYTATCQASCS

GLP-1 compound-HSA conjugate of Example 3: Human serum albumin conjugate of the lysine-modified GLP-1 compound SEQ ID NO:22 of Example 3 (HVEGTFTSDVSSYLEEQAAKEFIAWLIKGRGK(3‑(2-pyridyldithio)propanamide)-NH2; also: conjugated to human serum albumin)
EC50 values compared with Val^8-GLP-1(7-37)OH: about the same as the activity of Val^8-GLP-1(7-37)OH
